# Measurements from PMC11840598.
# Biological target: TM expressed on COS-7 cells from pTM-GFP recombinant plasmids (UniProt P07204)
# Assay: atomic force microscopy
# Sequence of UniProt P07204 (P07204 19-575): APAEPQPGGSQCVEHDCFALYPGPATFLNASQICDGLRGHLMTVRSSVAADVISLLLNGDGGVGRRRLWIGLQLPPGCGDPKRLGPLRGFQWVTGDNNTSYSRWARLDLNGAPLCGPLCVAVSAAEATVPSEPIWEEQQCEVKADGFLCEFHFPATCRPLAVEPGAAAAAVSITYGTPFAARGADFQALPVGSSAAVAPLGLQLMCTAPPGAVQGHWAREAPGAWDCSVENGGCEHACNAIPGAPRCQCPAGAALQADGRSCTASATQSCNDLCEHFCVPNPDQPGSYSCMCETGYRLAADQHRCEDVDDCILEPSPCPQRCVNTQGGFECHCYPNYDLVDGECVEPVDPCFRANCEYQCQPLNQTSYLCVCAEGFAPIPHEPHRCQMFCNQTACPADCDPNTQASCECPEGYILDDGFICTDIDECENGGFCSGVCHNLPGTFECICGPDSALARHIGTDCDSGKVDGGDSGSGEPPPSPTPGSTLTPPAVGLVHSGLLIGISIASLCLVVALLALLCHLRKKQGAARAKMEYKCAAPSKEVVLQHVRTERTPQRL
substance,measurement,value
human alpha thrombin (from UniProt P00734 364-622) (enzyme),"interactional force (single-molecule rupture force), with atorvastatin",84 pN
same,"interactional force (single-molecule rupture force), with pitavastatin",87 pN
same,"interactional force (single-molecule rupture force), with rosuvastatin",74.4 pN
